# Results published in the Human Domainome abundance scans (Beltran et al. 2025).
# ± gives the uncertainty stated by the source.
# B1: Homeobox protein cut-like 1, residues 548 to 629; numbered along this chain, P39880 (parent)
# chain: GEEMDTAEIARQVKEQLIKHNIGQRIFGHYVLGLSQGSVSEILARPKPWNKLTVRGKEPFHKMKQFLSDEQNILALRSIQGR
# Variants of: B1
# Experiment: abundance fitness (aPCA) (normalised: wild type 0, dead -1); higher = more abundant; growth selection in yeast, the domain comes from the species named
# Details: Homo sapiens
row,Variant,abundance fitness
1,GEYMDTAEIARQVKEQLIKHNIGQRIFGHYVLGLSQGSVSEILARPKPWNKLTVRGKEPFHKMKQFLSDEQNILALRSIQGR,-0.091 ± 0.063
2,GEGMDTAEIARQVKEQLIKHNIGQRIFGHYVLGLSQGSVSEILARPKPWNKLTVRGKEPFHKMKQFLSDEQNILALRSIQGR,-0.155 ± 0.023
3,GEPMDTAEIARQVKEQLIKHNIGQRIFGHYVLGLSQGSVSEILARPKPWNKLTVRGKEPFHKMKQFLSDEQNILALRSIQGR,-0.137 ± 0.045
4,GEQMDTAEIARQVKEQLIKHNIGQRIFGHYVLGLSQGSVSEILARPKPWNKLTVRGKEPFHKMKQFLSDEQNILALRSIQGR,-0.089 ± 0.04
5,GEKMDTAEIARQVKEQLIKHNIGQRIFGHYVLGLSQGSVSEILARPKPWNKLTVRGKEPFHKMKQFLSDEQNILALRSIQGR,-0.064 ± 0.035
6,GEAMDTAEIARQVKEQLIKHNIGQRIFGHYVLGLSQGSVSEILARPKPWNKLTVRGKEPFHKMKQFLSDEQNILALRSIQGR,-0.064 ± 0.029
7,GEFMDTAEIARQVKEQLIKHNIGQRIFGHYVLGLSQGSVSEILARPKPWNKLTVRGKEPFHKMKQFLSDEQNILALRSIQGR,0.1 ± 0.063
8,GEMMDTAEIARQVKEQLIKHNIGQRIFGHYVLGLSQGSVSEILARPKPWNKLTVRGKEPFHKMKQFLSDEQNILALRSIQGR,-0.101 ± 0.039
9,GELMDTAEIARQVKEQLIKHNIGQRIFGHYVLGLSQGSVSEILARPKPWNKLTVRGKEPFHKMKQFLSDEQNILALRSIQGR,-0.107 ± 0.031
10,GENMDTAEIARQVKEQLIKHNIGQRIFGHYVLGLSQGSVSEILARPKPWNKLTVRGKEPFHKMKQFLSDEQNILALRSIQGR,-0.119 ± 0.073
11,GEWMDTAEIARQVKEQLIKHNIGQRIFGHYVLGLSQGSVSEILARPKPWNKLTVRGKEPFHKMKQFLSDEQNILALRSIQGR,-0.017 ± 0.031
12,GEDMDTAEIARQVKEQLIKHNIGQRIFGHYVLGLSQGSVSEILARPKPWNKLTVRGKEPFHKMKQFLSDEQNILALRSIQGR,0.001 ± 0.042
13,GEVMDTAEIARQVKEQLIKHNIGQRIFGHYVLGLSQGSVSEILARPKPWNKLTVRGKEPFHKMKQFLSDEQNILALRSIQGR,-0.098 ± 0.028
14,GEIMDTAEIARQVKEQLIKHNIGQRIFGHYVLGLSQGSVSEILARPKPWNKLTVRGKEPFHKMKQFLSDEQNILALRSIQGR,-0.081 ± 0.066
15,GETMDTAEIARQVKEQLIKHNIGQRIFGHYVLGLSQGSVSEILARPKPWNKLTVRGKEPFHKMKQFLSDEQNILALRSIQGR,-0.057 ± 0.036
16,GERMDTAEIARQVKEQLIKHNIGQRIFGHYVLGLSQGSVSEILARPKPWNKLTVRGKEPFHKMKQFLSDEQNILALRSIQGR,-0.145 ± 0.025
17,GECMDTAEIARQVKEQLIKHNIGQRIFGHYVLGLSQGSVSEILARPKPWNKLTVRGKEPFHKMKQFLSDEQNILALRSIQGR,-0.142 ± 0.046

row,Variant,abundance fitness
1,GEHMDTAEIARQVKEQLIKHNIGQRIFGHYVLGLSQGSVSEILARPKPWNKLTVRGKEPFHKMKQFLSDEQNILALRSIQGR,-0.027 ± 0.061
2,GESMDTAEIARQVKEQLIKHNIGQRIFGHYVLGLSQGSVSEILARPKPWNKLTVRGKEPFHKMKQFLSDEQNILALRSIQGR,-0.118 ± 0.032
3,GEELDTAEIARQVKEQLIKHNIGQRIFGHYVLGLSQGSVSEILARPKPWNKLTVRGKEPFHKMKQFLSDEQNILALRSIQGR,0.002 ± 0.03
4,GEEHDTAEIARQVKEQLIKHNIGQRIFGHYVLGLSQGSVSEILARPKPWNKLTVRGKEPFHKMKQFLSDEQNILALRSIQGR,-0.304 ± 0.069
5,GEEDDTAEIARQVKEQLIKHNIGQRIFGHYVLGLSQGSVSEILARPKPWNKLTVRGKEPFHKMKQFLSDEQNILALRSIQGR,-0.304 ± 0.054
6,GEECDTAEIARQVKEQLIKHNIGQRIFGHYVLGLSQGSVSEILARPKPWNKLTVRGKEPFHKMKQFLSDEQNILALRSIQGR,-0.677 ± 0.1
7,GEEYDTAEIARQVKEQLIKHNIGQRIFGHYVLGLSQGSVSEILARPKPWNKLTVRGKEPFHKMKQFLSDEQNILALRSIQGR,-0.203 ± 0.066
8,GEETDTAEIARQVKEQLIKHNIGQRIFGHYVLGLSQGSVSEILARPKPWNKLTVRGKEPFHKMKQFLSDEQNILALRSIQGR,-0.204 ± 0.038
9,GEEEDTAEIARQVKEQLIKHNIGQRIFGHYVLGLSQGSVSEILARPKPWNKLTVRGKEPFHKMKQFLSDEQNILALRSIQGR,-0.191 ± 0.033
10,GEENDTAEIARQVKEQLIKHNIGQRIFGHYVLGLSQGSVSEILARPKPWNKLTVRGKEPFHKMKQFLSDEQNILALRSIQGR,-0.331 ± 0.056
11,GEEADTAEIARQVKEQLIKHNIGQRIFGHYVLGLSQGSVSEILARPKPWNKLTVRGKEPFHKMKQFLSDEQNILALRSIQGR,-0.432 ± 0.036
12,GEEGDTAEIARQVKEQLIKHNIGQRIFGHYVLGLSQGSVSEILARPKPWNKLTVRGKEPFHKMKQFLSDEQNILALRSIQGR,-0.523 ± 0.031
13,GEEFDTAEIARQVKEQLIKHNIGQRIFGHYVLGLSQGSVSEILARPKPWNKLTVRGKEPFHKMKQFLSDEQNILALRSIQGR,-0.244 ± 0.072
14,GEEIDTAEIARQVKEQLIKHNIGQRIFGHYVLGLSQGSVSEILARPKPWNKLTVRGKEPFHKMKQFLSDEQNILALRSIQGR,0.101 ± 0.055
15,GEEQDTAEIARQVKEQLIKHNIGQRIFGHYVLGLSQGSVSEILARPKPWNKLTVRGKEPFHKMKQFLSDEQNILALRSIQGR,-0.2 ± 0.037
16,GEERDTAEIARQVKEQLIKHNIGQRIFGHYVLGLSQGSVSEILARPKPWNKLTVRGKEPFHKMKQFLSDEQNILALRSIQGR,-0.517 ± 0.029
